Measurements reported in patent US20100087371.
Where a chain is given by its changes, count along the chain named.

B1: AlaPro-mTGase from S. mobaraensis (protein)
chain: APDSDDRVTPPAEPLDRMPDPYRPSYGRAETVVNNYIRKWQQVYSHRDGRKQQMTEEQREWLSYGCVGVTWVNSGQYPTNRLAFASFDEDRFKNELKNGRPRSGETRAEFEGRVAKESFDEEKGFQRAREVASVMNRALENAHDESAYLDNLKKELANGNDALRNEDARSPFYSALRNTPSFKERNGGNHDPSRMKAVIYSKHFWSGQDRSSSADKRKYGDPDAFRPAPGTGLVDMSRDRNIPRSPTSPGEGFVNFDYGWFGAQTEADADKTVWTHGNHYHAPNGSLGAMHVYESKFRNWSEGYSDFDRGAYVITFIPKSWNTAPDKVKQGWP
B2: GlyPro-mTGase from S. mobaraensis (protein)
chain: B1 chain with A1G
B3: Mature mTGase from S. ladakanum (protein)
chain: DSDERVTPPAEPLDRMPDPYRPSYGRAETIVNNYIRKWQQVYSHRDGRKQQMTEEQREWLSYGCVGVTWVNSGQYPTNRLAFAFFDEDKYKNELKNGRPRSGETRAEFEGRVAKDSFDEAKGFQRARDVASVMNKALENAHDEGAYLDNLKKELANGNDALRNEDARSPFYSALRNTPSFKDRNGGNHDPSKMKAVIYSKHFWSGQDRSGSSDKRKYGDPEAFRPDRGTGLVDMSRDRNIPRSPTSPGESFVNFDYGWFGAQTEADADKTVWTHGNHYHAPNGSLGAMHVYESKFRNWSDGYSDFDRGAYVVTFVPKSWNTAPDKVKQGWP
B4: Met-mTGase from S. mobaraensis (protein)
chain: MDSDDRVTPPAEPLDRMPDPYRPSYGRAETVVNNYIRKWQQVYSHRDGRKQQMTEEQREWLSYGCVGVTWVNSGQYPTNRLAFASFDEDRFKNELKNGRPRSGETRAEFEGRVAKESFDEEKGFQRAREVASVMNRALENAHDESAYLDNLKKELANGNDALRNEDARSPFYSALRNTPSFKERNGGNHDPSRMKAVIYSKHFWSGQDRSSSADKRKYGDPDAFRPAPGTGLVDMSRDRNIPRSPTSPGEGFVNFDYGWFGAQTEADADKTVWTHGNHYHAPNGSLGAMHVYESKFRNWSEGYSDFDRGAYVITFIPKSWNTAPDKVKQGWP
B5: Met-mTGase from S. ladakanum (protein)
chain: MDSDERVTPPAEPLDRMPDPYRPSYGRAETIVNNYIRKWQQVYSHRDGRKQQMTEEQREWLSYGCVGVTWVNSGQYPTNRLAFAFFDEDKYKNELKNGRPRSGETRAEFEGRVAKDSFDEAKGFQRARDVASVMNKALENAHDEGAYLDNLKKELANGNDALRNEDARSPFYSALRNTPSFKDRNGGNHDPSKMKAVIYSKHFWSGQDRSGSSDKRKYGDPEAFRPDRGTGLVDMSRDRNIPRSPTSPGESFVNFDYGWFGAQTEADADKTVWTHGNHYHAPNGSLGAMHVYESKFRNWSDGYSDFDRGAYVVTFVPKSWNTAPDKVKQGWP
B6: AlaPro-mTGase from S. ladakanum (protein)
chain: APDSDERVTPPAEPLDRMPDPYRPSYGRAETIVNNYIRKWQQVYSHRDGRKQQMTEEQREWLSYGCVGVTWVNSGQYPTNRLAFAFFDEDKYKNELKNGRPRSGETRAEFEGRVAKDSFDEAKGFQRARDVASVMNKALENAHDEGAYLDNLKKELANGNDALRNEDARSPFYSALRNTPSFKDRNGGNHDPSKMKAVIYSKHFWSGQDRSGSSDKRKYGDPEAFRPDRGTGLVDMSRDRNIPRSPTSPGESFVNFDYGWFGAQTEADADKTVWTHGNHYHAPNGSLGAMHVYESKFRNWSDGYSDFDRGAYVVTFVPKSWNTAPDKVKQGWP
B7: GlyPro-mTGase from S. ladakanum (protein)
chain: B6 chain with A1G
B8: mTGase from S. mobaraensis (protein)
chain: DSDDRVTPPAEPLDRMPDPYRPSYGRAETVVNNYIRKWQQVYSHRDGRKQQMTEEQREWLSYGCVGVTWVNSGQYPTNRLAFASFDEDRFKNELKNGRPRSGETRAEFEGRVAKESFDEEKGFQRAREVASVMNRALENAHDESAYLDNLKKELANGNDALRNEDARSPFYSALRNTPSFKERNGGNHDPSRMKAVIYSKHFWSGQDRSSSADKRKYGDPDAFRPAPGTGLVDMSRDRNIPRSPTSPGEGFVNFDYGWFGAQTEADADKTVWTHGNHYHAPNGSLGAMHVYESKFRNWSEGYSDFDRGAYVITFIPKSWNTAPDKVKQGWP

Legend:
[1] = target: hGHQ40N, P01241
Sequence of hGHQ40N, P01241 (P01241 27-217 Q66N): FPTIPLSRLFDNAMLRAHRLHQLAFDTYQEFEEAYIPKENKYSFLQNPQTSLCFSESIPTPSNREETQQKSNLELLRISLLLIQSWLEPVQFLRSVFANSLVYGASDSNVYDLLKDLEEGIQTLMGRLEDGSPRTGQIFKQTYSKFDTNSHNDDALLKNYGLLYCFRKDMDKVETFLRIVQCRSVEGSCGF

[2] = target: hGHQ141N, P01241
Sequence of hGHQ141N, P01241 (P01241 27-217 Q167N): as the sequence (P01241 27-217 Q66N) above, with N40Q, Q141N counted along it

| Protein | Activity towards hGHQ40N (RFU/sec/µg), dansyl-cadaverine incorporation [1] [RFU/sec/µg] | Activity towards hGHQ141N (RFU/sec/µg), dansyl-cadaverine incorporation [2] [RFU/sec/µg] |
| --- | --- | --- |
| B1 | 5.05 | 1.56 |
| B2 | 4.28 | 1.13 |
| B3 | 3.55 | 0.63 |
| B4 | 5.44 | 1.24 |
| B5 | 4.74 | 0.8 |
| B6 | 6.91 | 1.02 |
| B7 | 4.25 | 0.48 |
| B8 | 3.35 | 0.98 |
